Test results as given in publication PMC3516556.

Target: FLAG-GluK2 (UniProt P42260)
Assay: co-IP; COS-7 cells transfected with combinations of FLAG-GluK2, Neto2 or Neto2Δ7 and GRIP(PDZ4-7)-myc; lysates immunoprecipitated with an anti-GluK2 antibody, western blot

Sequence of UniProt P42260 (P42260 32-908): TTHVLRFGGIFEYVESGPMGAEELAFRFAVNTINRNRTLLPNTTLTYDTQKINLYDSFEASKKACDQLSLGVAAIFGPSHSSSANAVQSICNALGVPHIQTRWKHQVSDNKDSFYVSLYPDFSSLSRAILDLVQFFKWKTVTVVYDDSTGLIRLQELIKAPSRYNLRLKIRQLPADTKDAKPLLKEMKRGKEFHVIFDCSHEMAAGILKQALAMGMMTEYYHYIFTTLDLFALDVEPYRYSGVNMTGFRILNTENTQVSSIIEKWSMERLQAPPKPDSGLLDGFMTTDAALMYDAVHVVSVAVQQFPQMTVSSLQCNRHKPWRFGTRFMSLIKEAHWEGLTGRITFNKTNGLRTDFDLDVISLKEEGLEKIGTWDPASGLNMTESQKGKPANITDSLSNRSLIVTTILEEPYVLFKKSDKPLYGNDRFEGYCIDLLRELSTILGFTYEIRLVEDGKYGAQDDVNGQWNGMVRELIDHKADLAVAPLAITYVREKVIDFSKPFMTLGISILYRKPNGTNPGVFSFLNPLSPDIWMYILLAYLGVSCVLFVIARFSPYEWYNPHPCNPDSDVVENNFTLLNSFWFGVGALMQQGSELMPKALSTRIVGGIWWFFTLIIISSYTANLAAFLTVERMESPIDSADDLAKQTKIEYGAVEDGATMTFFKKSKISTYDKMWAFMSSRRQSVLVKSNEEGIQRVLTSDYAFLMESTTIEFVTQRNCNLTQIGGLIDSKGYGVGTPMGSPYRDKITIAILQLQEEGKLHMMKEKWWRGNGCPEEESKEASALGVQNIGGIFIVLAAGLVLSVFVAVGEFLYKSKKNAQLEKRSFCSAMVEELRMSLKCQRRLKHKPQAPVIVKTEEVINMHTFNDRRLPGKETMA

For “C-terminal myc-tagged GRIP(PDZ4-7) (domain or fragment)”, which amount coimmunoprecipitated with GluK2 when Neto2 is coexpressed, percent of signal in the absence of Neto2 (% of signal in the absence of Neto2) is on record?
The amount coimmunoprecipitated with GluK2 when Neto2 is coexpressed, percent of signal in the absence of Neto2 (% of signal in the absence of Neto2) was 250.

And the amount coimmunoprecipitated with GluK2 when Neto2Δ7 is coexpressed, percent of signal in the absence of Neto2 (% of signal in the absence of Neto2)?
The amount coimmunoprecipitated with GluK2 when Neto2Δ7 is coexpressed, percent of signal in the absence of Neto2 (% of signal in the absence of Neto2) was 103.
